Target: preformed binary t-SNARE complex of Syx 1a (amino acids 1-262) and SNAP25 (amino acids 1-206), O35526
Experiment: SDS-resistant SNARE complex formation (SDS-PAGE without boiling, Coomassie staining); t-SNAREs preformed 1 hr (syntaxin 1 3 uM, SNAP25 15 uM), peptide (50 uM) or none added for 30 min, then GST-SybII (3 uM); 25 C; 100 mM NaCl, 1 mM DTT, 1 mM EDTA, 0.5% Triton X-100, 20 mM Tris pH 7.4; time …
Conditions: other: SDS-resistant SNARE complex formation (SDS-PAGE without boiling, Coomassie staining)

preformed binary t-SNARE complex of Syx 1a (amino acids 1-262) and SNAP25 (amino acids 1-206), O35526, sequence (O35526 whole entry, looked up, the tested form may be a part, one chain of several): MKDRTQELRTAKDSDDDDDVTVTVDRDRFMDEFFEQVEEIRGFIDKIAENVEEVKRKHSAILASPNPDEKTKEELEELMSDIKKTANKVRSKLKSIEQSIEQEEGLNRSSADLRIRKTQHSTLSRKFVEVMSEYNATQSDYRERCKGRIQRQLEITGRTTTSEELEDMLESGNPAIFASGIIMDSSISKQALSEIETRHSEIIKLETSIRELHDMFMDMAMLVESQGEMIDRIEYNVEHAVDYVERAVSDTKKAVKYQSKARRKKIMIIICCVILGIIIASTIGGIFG

Row | Protein | amount of assembled SNARE complexes (m10 with m11) after 240 min with 50 uM peptide, % of control | rate of SNARE complex assembly (m10 with m11) with 50 uM peptide, % of control
1 | KVPYELGGQLPELKTSDPIEGEDEDELFMKEIAC [scrambled variant of the CpxII CTD peptide, in solution] | scr-peptide 88.8 ± 9.6 | 106.6 ± 16.7% of control
2 | IPAGCGDEEEEEEESILDTVLKYLPGPLQDMFKK [CpxII CTD peptide (amino acids 101-134), in solution] | CTD-peptide 92.3 ± 9.1 | 51.4 ± 3.8% of control
